In article PMC11938149:

Molecular target: T1, Bacillus subtilis FtsZ^1-382 (for light scattering) (Bacillus subtilis) (UniProt P17865)
T1 sequence: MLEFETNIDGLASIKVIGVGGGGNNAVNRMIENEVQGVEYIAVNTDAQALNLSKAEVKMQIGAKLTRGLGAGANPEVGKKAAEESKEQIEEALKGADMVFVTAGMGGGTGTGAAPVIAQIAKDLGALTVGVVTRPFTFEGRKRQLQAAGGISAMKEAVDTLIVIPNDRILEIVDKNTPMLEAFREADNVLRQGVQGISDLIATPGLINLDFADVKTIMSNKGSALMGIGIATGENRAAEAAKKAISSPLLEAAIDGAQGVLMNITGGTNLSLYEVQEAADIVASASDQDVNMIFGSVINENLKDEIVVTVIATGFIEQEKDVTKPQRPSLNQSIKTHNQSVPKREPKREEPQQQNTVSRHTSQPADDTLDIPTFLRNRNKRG

inhibition of FtsZ polymerization by light scattering (5 uM FtsZ, 15 uM MinC, HMK buffer pH 7.7, 100 mM potassium): 50%
B1: Bacillus subtilis MinC^1-224 wild type (for light scattering) (natural protein)
chain: MKTKKQQYVTIKGTKNGLTLHLDDACSFDELLDGLQNMLSIEQYTDGKGQKISVHVKLGNRFLYKEQEEQLTELIASKKDLFVHSIDSEVITKKEAQQIREEAEIISVSKIVRSGQVLQVKGDLLLIGDVNPGGTVRAGGNIFVLGSLKGIAHAGFNGNNQAVIAASEMLPTQLRINHVLNRSPDHIQKGNEMECAYLDTDGNMVIERLQHLAHLRPDLTRLEG
